Earlier results, collected in paper PMC8439649.

Target: mTORC1 (Homo sapiens) (UniProt P42345)

- Kd: 7 µM
Substance: DEPTOR PDZ (from UniProt Q8TB45)
